2 molecules from patent US20100197896A1 (published 2010) can be followed below.

The assay deals with T1, human CD20 antigen (human, UniProt P11836 1-297).
T1 construct: whole, on cells; also called MS4A1
T1 sequence (looked up): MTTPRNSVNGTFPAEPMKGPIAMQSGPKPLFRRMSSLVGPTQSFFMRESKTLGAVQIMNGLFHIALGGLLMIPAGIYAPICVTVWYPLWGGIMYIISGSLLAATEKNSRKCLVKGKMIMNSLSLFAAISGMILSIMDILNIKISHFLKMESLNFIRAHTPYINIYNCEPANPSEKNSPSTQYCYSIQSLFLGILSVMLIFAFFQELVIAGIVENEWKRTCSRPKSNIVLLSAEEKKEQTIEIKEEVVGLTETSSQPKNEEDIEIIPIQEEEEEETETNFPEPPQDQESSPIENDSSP
The experiment in a line: competition flow cytometry against FITC-conjugated fr1F5 (FIG. 6).

B1: framework-re-engineered 1F5 antibody (antibody, V domains shown)
VH: QVQLVASGAEVNKPGASVKVSCKASGYTFTSYNMHWVRQPPGRGLEWIGAIYPGNGDTSYNQKFKGRVTITADKSTSTAYMELSSLRSEDTAVYYCARSHYGSNYVDYFDYWGQGTTVTVSS
VL: DIQLTQSPSSLSASVGDRVTITCRASSSLSFMHWYQQKPGQAPVPVIYATSNLASGVPSRFSGSGSGTEFTLTISSLQPEDFATYFCHQWSSNPLTFGAGTKLTVLR
notes: also called fr1F5
For B1, the binding result is reported as “binds”.

B2: murine 1F5 antibody (antibody, V domains shown)
VH: QVQLRQPGAELVKPGASVKMSCKASGYTFTSYNMHWVKQTPGQGLEWIGAIYPGNGDTSYNQKFKGKATLTADKSSSTAYMQLSSLTSEDSAVYYCARSHYGSNYVDYFDYWGQGTTLTVSS
VL: QIVLSQSPAILSASPGEKVTMTCRASSSLSFMHWYQQKPGSSPKPWIYATSNLASGVPARFSGSGSGTSYSLTISRVEAEDAATYFCHQWSSNPLTFGAGTKLELKR
notes: Mouse IgG with a kappa light chain, from hybridoma ATCC HB-9645; also called anti-CD20 mAb 1F5
For the molecule B2, the binding result is on record as “binds”.
